From patent US20090214547A1 (published 2009) come the findings set out here.

The assay addresses T1, Pneumolysin, 57 kDa (full length w/His-tag) (Streptococcus pneumoniae, UniProt Q04IN8 2-471).
T1 construct: also called Antigen; PLY
Kind of assay: SPR, Mab captured on Protein-G chip. Background: Surface plasmon resonance follows binding to a sensor surface in real time, without labels.

T1 sequence (Q04IN8 2-471): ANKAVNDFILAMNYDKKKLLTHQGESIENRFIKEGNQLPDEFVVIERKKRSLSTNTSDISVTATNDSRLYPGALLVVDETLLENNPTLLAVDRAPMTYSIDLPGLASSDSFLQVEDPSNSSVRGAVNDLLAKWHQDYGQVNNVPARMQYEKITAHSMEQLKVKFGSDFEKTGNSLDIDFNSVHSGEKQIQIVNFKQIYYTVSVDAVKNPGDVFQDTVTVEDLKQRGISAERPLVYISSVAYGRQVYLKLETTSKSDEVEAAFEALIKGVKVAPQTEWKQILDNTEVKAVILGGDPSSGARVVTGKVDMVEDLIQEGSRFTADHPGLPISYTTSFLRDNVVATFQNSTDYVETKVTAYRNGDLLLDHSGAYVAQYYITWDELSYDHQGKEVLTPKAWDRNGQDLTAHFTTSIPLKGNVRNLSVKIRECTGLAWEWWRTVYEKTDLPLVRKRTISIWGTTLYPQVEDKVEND

B1: 26-5F12.1 (antibody, V domains shown)
VH: VKLQESGAEVKKPGASVKVSCTASGYIFTSYAIHWVRQAPGQRLEWMGWINAGYGNTKYSQKFQGRVSITRDKSASTAYMELSSLRSEDTAVYYCARRGQQLAFDYWGQGTTVTVSS
VL: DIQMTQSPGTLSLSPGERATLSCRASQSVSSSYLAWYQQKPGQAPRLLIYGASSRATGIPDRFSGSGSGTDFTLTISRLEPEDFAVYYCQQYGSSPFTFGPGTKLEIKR
notes: also called PdB26-5F12.1
Turning to B1, the affinity, expressed as Kd, was 0.82 nM; the off-rate constant (koff) (as a rule, the first-order rate constant of dissociation) was 0.00043 s⁻¹; the kon (in general, a measure of how fast the partners come together) came out at 530000 M⁻¹ s⁻¹.
